Each block holds one molecule with its values, some of them ahead of it.
Columns and labels:
[1] = target: endogenous β2-syntrophin (rat) (UniProt P01322); experiment: cell-based or functional assay
[2] = target: the molecule itself; experiment: co-immunoprecipitation from INS-1E cells
35S-Luciferase = target: T1, 35S-Luciferase (firefly, UniProt P08659 1-550 = luciferase, 35S-methionine labelled); experiment: GST pull-down, SDS-PAGE and autoradiography
T1 construct: Control protein in the pull-down assays; also called firefly luciferase; control protein
T1 sequence (P08659 whole entry): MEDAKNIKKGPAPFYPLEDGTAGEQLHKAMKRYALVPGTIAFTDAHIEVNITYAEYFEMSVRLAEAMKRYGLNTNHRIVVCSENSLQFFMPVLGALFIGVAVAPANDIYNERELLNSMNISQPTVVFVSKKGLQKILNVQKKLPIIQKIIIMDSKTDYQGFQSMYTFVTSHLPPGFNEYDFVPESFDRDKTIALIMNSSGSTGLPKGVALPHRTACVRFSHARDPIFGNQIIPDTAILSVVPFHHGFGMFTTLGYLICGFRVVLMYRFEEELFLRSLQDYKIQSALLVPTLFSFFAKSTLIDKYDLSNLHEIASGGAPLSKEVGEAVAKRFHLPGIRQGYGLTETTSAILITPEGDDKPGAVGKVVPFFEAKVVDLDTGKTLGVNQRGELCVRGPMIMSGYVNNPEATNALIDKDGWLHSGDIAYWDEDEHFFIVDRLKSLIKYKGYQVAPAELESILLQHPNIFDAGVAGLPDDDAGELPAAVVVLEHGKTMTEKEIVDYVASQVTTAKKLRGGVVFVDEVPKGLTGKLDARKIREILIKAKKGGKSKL

35S-ICA512601-979 = target: T2, 35S-ICA512601-979 (Homo sapiens (Human), UniProt Q16849 601-979, 35S-methionine labelled); experiment: GST pull-down, SDS-PAGE and autoradiography
T2 construct: also called cytoplasmic portion of ICA512
T2 sequence: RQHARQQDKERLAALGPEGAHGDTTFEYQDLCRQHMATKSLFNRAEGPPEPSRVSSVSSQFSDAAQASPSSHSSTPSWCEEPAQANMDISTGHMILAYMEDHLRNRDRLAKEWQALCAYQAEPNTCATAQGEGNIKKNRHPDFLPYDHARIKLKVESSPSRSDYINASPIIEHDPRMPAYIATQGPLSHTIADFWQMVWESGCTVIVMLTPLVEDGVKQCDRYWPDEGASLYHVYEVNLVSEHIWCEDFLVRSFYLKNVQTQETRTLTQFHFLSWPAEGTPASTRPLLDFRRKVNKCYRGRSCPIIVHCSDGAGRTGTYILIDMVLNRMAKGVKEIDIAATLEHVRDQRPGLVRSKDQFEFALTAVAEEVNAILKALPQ

35S-ICA512700-979 = target: T3, 35S-ICA512700-979 (Homo sapiens (Human), UniProt Q16849 700-979, 35S-methionine labelled); experiment: GST pull-down, SDS-PAGE and autoradiography
T3 construct: In vitro transcribed and translated from pET28a; also called PTP portion of ICA512
T3 sequence: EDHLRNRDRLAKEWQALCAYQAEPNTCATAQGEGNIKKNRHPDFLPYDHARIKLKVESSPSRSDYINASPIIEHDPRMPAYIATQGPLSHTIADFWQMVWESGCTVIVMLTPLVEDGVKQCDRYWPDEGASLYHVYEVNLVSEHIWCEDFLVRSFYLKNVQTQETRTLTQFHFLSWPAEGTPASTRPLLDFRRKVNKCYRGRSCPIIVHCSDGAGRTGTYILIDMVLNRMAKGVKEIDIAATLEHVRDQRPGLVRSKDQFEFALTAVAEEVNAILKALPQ

insulin stimulation index after knockdown of β2-syntrophin, compared to control cells [1]: 34%
Molecule: ICA512-TMF (from UniProt Q63259 41-983) (receptor)

B1: pro-ICA512 (receptor, rat, UniProt Q63259 41-983, looked up)
chain: ISAHGCLFDRRLCSHLEVCIQDGLFGQCQAGVGQARPLLQVTSPVLQRLQGVLRQLMSQGLSWHDDLTQYVISQEMERIPRLRPPEPHPRDRSGSVPRRAGPAGELLSQGNPTGSSPAVQGLSRPPGDGNGAGVGSPLSSLQAELLPPLLEHLLMPPQPPHPSLTYEPALLQPYLFQQFGSRDGSRGSESASGVVGHLAKAEDPVLFSRSLSKAILGTHSGHSFGDLTGPSPAQLFQDSGLLYMAQELPVPGRARAPRLPEEGGSSRAEDSSEGHEEEVLGGHGEKSPPQAVQADVSLQRLAAVLAGYGVELRQLTPEQLSTLLTLLQLLPKGTGRHLGGAVNGGADVKKTIEEQMQRGDTADARPPTPLLPGHPTASSTSIKVRQVLSPGFPEPPKTSSPLGISAVLLEKKSPLGQSQPTVVGQPSARPSAEEYGYIVTDQKPLSLVAGVKLLEILAEHVHMTSGSFINISVVGPAVTFRIRHNEQNLSLADVTQQAGLVKSELEAQTGLQILQTGVGQREESAAVLPRQAHGISPMRSLLLTLVALAGVAGLLVALAVALCMRHHSKQRDKERLAALGPEGAHGDTTFEYQDLCRQHMATKSLFNRAEGQPEPSRVSSVSSQFSDAAQASPSSHSSTPSWCEEPAQANMDISTGHMILAYMEDHLRNRDRLAKEWQALCAYQAEPNTCATAQGEGNIKKNRHPDFLPYDHARIKLKVESSPSRSDYINASPIIEHDPRMPAYIATQGPLSHTIADFWQMVWESGCTVIVMLTPLVEDGVKQCDRYWPDEGSSLYHVYEVNLVSEHIWCEDFLVRSFYLKNVQTQETRTLTQFHFLSWPAEGTPASTRPLLDFRRKVNKCYRGRSCPIIVHCSDGAGRTGTYILIDMVLNRMAKGVKEIDIAATLEHVRDQRPGLVRSKDQFEFALTAVAEEVNAILKALPQ
notes: In cells expressing ICA512-GFP, one partner may be the GFP-tagged form; also called pro-form of ICA512, glycoprotein of 110 kDa
binding result [2]: no binding

binding result (35S-Luciferase): no binding
B2: GST-ICA512601-979 (other)
chain: RQHARQQDKERLAALGPEGAHGDTTFEYQDLCRQHMATKSLFNRAEGPPEPSRVSSVSSQFSDAAQASPSSHSSTPSWCEEPAQANMDISTGHMILAYMEDHLRNRDRLAKEWQALCAYQAEPNTCATAQGEGNIKKNRHPDFLPYDHARIKLKVESSPSRSDYINASPIIEHDPRMPAYIATQGPLSHTIADFWQMVWESGCTVIVMLTPLVEDGVKQCDRYWPDEGASLYHVYEVNLVSEHIWCEDFLVRSFYLKNVQTQETRTLTQFHFLSWPAEGTPASTRPLLDFRRKVNKCYRGRSCPIIVHCSDGAGRTGTYILIDMVLNRMAKGVKEIDIAATLEHVRDQRPGLVRSKDQFEFALTAVAEEVNAILKALPQ
notes: Bacterially expressed, coupled to glutathione sepharose beads (1 µg); The construct is only cited (Ort et al., 2000); not shown: glutathione S-transferase (GST) fusion partner

binding result (35S-ICA512601-979): no binding
binding result (35S-ICA512700-979): no binding
B3: GST-ICA512800-979 (other)
chain: ESGCTVIVMLTPLVEDGVKQCDRYWPDEGASLYHVYEVNLVSEHIWCEDFLVRSFYLKNVQTQETRTLTQFHFLSWPAEGTPASTRPLLDFRRKVNKCYRGRSCPIIVHCSDGAGRTGTYILIDMVLNRMAKGVKEIDIAATLEHVRDQRPGLVRSKDQFEFALTAVAEEVNAILKALPQ
notes: Bacterially expressed, on glutathione sepharose beads; not shown: glutathione S-transferase (GST) fusion partner

Reference: patent EP1987837A1 (Technische Universität Dresden Medizinische Fakultät Carl …, dated 2008)
